# Measured values as given in the DeepSol protein solubility set.
# Experiment: soluble on expression in E. coli; label from the status in PepcDB or PDB records
row,Sequence,soluble on expression in E. coli
1,FGVWVLVPRSFPRCVWFQRSMAVVIRLQGLPIVAGTMDIRHFFSGLTIPDGGVHIVGGELGEAFIVFATDEDARLGMMRTGGTIKGSKVTLLLSSKTEMQNMIELSRRRFETANLDIPPANASRSGPPPSSGMSSRVNLPTTVSNFNNPSPSVVTATTSVHESNKNIQTFSTASVGTAPPNMGASFGSPTFSSTVPSTASPMNTVPPPPIPPIPAMPSLPPMPSIPPIPVPPPVPTLPPVPPVPPIPPVPSVPPMTPLPPMSGMPPLNPPPVAPLPAGMNGSGAPMNLNNNLNPMFLGPLNPVNPIQMNSQSSVKPLPINPDDLYVSVHGMPFSAMENDVRDFFHGLRVDAVHLLKDHVGRNNGNGLVKFLSPQDTFEALKRNRMLMIQRYVEVSPATERQWVAAGGHITFKQNMGPSGQTHPPPQTLPRSKSPSGQKRSRSRSPHEAGFCVYLKGLPFEAENKHVIDFFKKLDIVEDSIYIAYGPNGKATGEGFVEFRNEADYKAALCRHKQYMGNRFIQVHPITKKGMLEKIDMIRKRLQNFSYDQREMILNPEGDVNSAKVCAHITNIPFSITKMDVLQFLEGIPVDENAVHVLVDNNGQGLGQALVQFKNEDDARKSERLHRKKLNGREAFVHVVTLEDMREIEKNPPAQGKKGLKMPVPGNPAVPGMPNAGLPGVGLPSAGLPGAGLPSTGLPGSAITSAGLPGAGMPSAGIPSAGGEEHAFLTVGSKEANNGPPFNFPGNFGGSNAFGPPIPPPGLGGGAFGDARPGMPSVGNSGLPGLGLDVPGFGGGPNNLSGPSGFGGGPQNFGNGPGSLGGPPGFGSGPPGLGSAPGHLGGPPAFGPGPGPGPGPGPIHIGGPPGFASSSGKPGPTVIKVQNMPFTVSIDEILDFFYGYQVIPGSVCLKYNEKGMPTGEAMVAFESRDEATAAVIDLNDRPIGSRKVKLVLG,soluble
2,MGSDKIHHHHHHMPRTIRIYRPTELPADEALPVIYMHDGQNVFSGETASFGKGWEVHHALHTVQLHAMIVAIDSPDDGMDRYDEYAPWTDEALLMRTAYPSHRKTIGGNGKQYMHWIVHELKPYIDAQYATIPTDTTMIGSSMGGVISLYGLFAYPEVFTRVAALSTAGWANFSSLLEFIERSPGLSEDHRCYMDVGTKEVSGPMTENDYLHTNEVLAKAVQKKVQQAAYEIIPGAVHHETEWAKRMPDILRFLFSS,not soluble
3,MFCEKAMELIRELHRAPEGQLPAFNEDGLRQVLEEMKALYEQNQSDVNEAKSGGRSDLIPTIKFRHCSLLRNRRCTVAYLYDRLLRIRALRWEYGSILPNALRFHMAAEEMEWFNNYKRSLATYMRSLGGDEGLDITQDMKPPKSLYIEVRCLKDYGEFEVDDGTSVLLKKNSQHFLPRWKCEQLIRQGVLEHILS,soluble
4,MVINQTFLQNNVMDKCNDKRKRGERDWDCPAEKDICISDRRYQLCMKELTNLVNNTRTHSHNDITFLKLNLKRKLMYDAAVEGDLLLKKNNYQYNKEFCKDIRWGLGDFGDIIMGTNMEGIGYSQVVENNLRSIFGTDEKAKQDRKQWWNESKEHIWRAMMFSLRSRLKEKFVWICKKDVTLKVEPQIYRWIREWGRDYMSELPKEQGKLNEKCASKLYYNNMAICMLPLCHDACKSYDQWITRKKKQWDVLSTKFSSVKKTQKIGTENIATAYDILKQELNGFKEATFENEINKRDNLYNHLCPCVVEEARKNTQENVKNVGSGVESKAASSNPITE,soluble
5,RKILDSKAIDLMNALMRLNQIRPGLQYKLLSQSGPVHAPVFTMSVDVDGTTYEASGPSKKTAKLHVAVKVLQAMGYPTGFDADI,soluble
6,MGSDKIHHHHHHMSNVTAEQKKEVKGRGFLPSRDGEHFAARIITVNGVINASQAKKIAEAAEKFGNGQLAFTTRLTVELPGVKFEDIEALSEFIASENLITGGTGSRVRPVVACKGTVCVHGLADTQALAAEIHEEFYKNWYDVKLPHKFKIGVGGCPNNCIKPDLNDLGIVGQRVPDYDSELCVGCKKCAVVEVCPVKAAKLTDKGKLEIDSNLCNNCGKCIESCNFDSIEEKESGYKVYIGGKWGKSVRPGTQIDRLFSKEELMTLIEKAILLFREQGNTGERFGITIDRIGADKFIEMLLSDEVLERKEEILEALLHLTGGAVC,not soluble
7,GSHMTPPHNYLAVIKVVGIGGGGVNAVNRMIEQGLKGVEFIAINTDAQALLMSDADVKLDVGRDSTRGLGAGADPEVGRKAAEDAKDEIEELLRGADMVFVTAGEGGGTGTGGAPVVASIARKLGALTVGVVTRPFSFEGKRRSNQAENGIAALRESCDTLIVIPNDRLLQMGDAAVSLMDAFRSADEVLLNGVQGITDLITTPGLINVDFADVKGIMSGAGTALMGIGSARGEGRSLKAAEIAINSPLLEASMEGAQGVLMSIAGGSDLGLFEINEAASLVQDAAHPDANIIFGTVIDDSLGDEVRVTVIAAGFDVSGPGRKPVMGETGGAHRIESAKAGKLTSTLFEPVDAVSVPLHTNGATLSIGGDDDDVDVPPFMRR,soluble
8,MSLLYKKHSLHNIGRWVTNNSFFRKSGRIAVSTFNVAKFGGTSVANFEAMSRCSAIIENNPQTRLVVSSACSGVTNLLVELANGVASTERRQAILQQLADIHYVIIDQLADPTRVEKEVKAVLDSVASAAEAASFQSSKKLTDHLVACGELISTYILTQLMRERGVDAVRFDIREVLRTDDHYGRAEPQLKEIAQLAKEKLVPLCEQYVVVTQGFIGSDAQGNTTTLGRGGSDYSAALIAEAVQASGLEIWTDVPGIYSTDPRIAPKAAPIPEISFSEASEMANFGAKILHPSTLLPAVRHGIPVFVGSSKEPEKGGTWIRKQVESAPLYRALALRCNQTMVTLRSAQMFHAYGFLAKVFEILAKHKISVDLITTSEISVSLTLDKTDTSGGAPELPEAVRAELEELCTVEVEYNLCLIALIGNKMKESRGYAKQVFSVLEDYNLRMICYGASAHNLCFLLHESVSKQAVQKLHKELFEQEEGHHHHHH,soluble
9,MNDGKISILVLGADKAQGGQSRTDSIMVVQYDFINKKMKMMSVMRDIYADIPGYGKHKINSAYALGGPKLLRKTLDKNLGINPEYYAVVDFTGFEKMIDELMPEGVPINVEKDMSKNIGVSLKKGNHRLNGKELLGYARFRHDPEGDFGRVRRQQQVMQTLKKEMVNFRTVVKLPKVAGILRGYVNTNIPDSGIFQTGLSFGIRGEKDVKSLTVPIKNSYEDVNTNTDGSALQINKNTNKQAIKDFLDEDLEHHHHHH,soluble
10,MADAEGDPLQAFWTQVVRLRDLLKFDFYFADSAAFHQNVAEEMSWHADWEQQVRAGRDGIETLMRAKRPLLADAMLRPYFEAYTIVADVLRDAPAEIAEKDLTKLALGVGQQYVAQGRVRNNESVSALLFATARQVAADQGLLEHGPDLMEQRRAFRDELRGILRDLDTVDRYARELFAARERERRTKRDEAVLEHHHHHH,not soluble
11,MSLSRYEKIISARWIITVETDGEVLENHAIAIRDGKIAAIIPAADAAGLEADERLELPDHVLMPGLINLHGHSAMSLLRGLADDKALMDWLTNYIWPTEGKHVHDDFVFDGSLLAMGEMIRGGTTTINDMYFYNAAVARAGLASGMRTFVGCSILEFPTNYASNADDYIAKGMAERSQFLGEDLLTFTLAPHAPYTVSDDTFRKVVTLAEQEDMLIHCHIHETADEVNNSVKEHGQRPLARLQRLGLLSPRLVAAHMVHLNDAEVELAARHGLSTAHNPASNMKLASGISPVSKLMDAGVAVGIGTDGAASNNKLDMLAETRLAALLAKVGTLDPTSVPAAAAIRMATLNGARALGIADKVGSVKVGKQADLIALDLAQLETAPAFDPISHVVYAAGREQVSHVWVKGRALMRERKLTTLDESDLKARAGDWRNRILAKEGHHHHHH,soluble
12,MHAQFHHVSLLARHGQENQSFYTKLLGLRFVKNTVNQDNNRMPHYFYGDYQGTPGSLVTFFIVPLLGNRYEEKNYLATIGLKIPQNSLSFWEQRLTENKIPFNKKEKSLHFSDPDDTHIILTEVPENPLKETLVVSNDIPAAVQIIGLASTEFHVPDSEKTLAFFETFLGWQAVGNTIILSETESFSVHQTTSDKTSRMGRGSMDHIAFSVADDEALQELHTRALAQGWEIEMYVSRGYFKSLYIREPGGNRVEFATLTPGFTLDEPLEHLGETLALPPFLEPKRTAIEANLYKDM,not soluble
